Experimental data reported in the Immune Epitope Database (IEDB).
pIC50, pKd: −log10 of the molar value.

What was measured:
[1] = biological target: HLA-B*15:01; assay: IEDB peptide-MHC binding, purified MHC/competitive/radioactivity; filed as Kd, often an IC50 or EC50 that approximates it; ≥ and ≤ were set here for values at or beyond the usual limits of such assays
[2] = biological target: HLA-A*02:03; assay: as above
[3] = biological target: HLA-A*02:06; assay: as above
[4] = biological target: HLA-A*02:02; assay: as above
[5] = biological target: HLA-A*30:02; assay: as above
[6] = biological target: HLA-B*07:02; assay: IEDB peptide-MHC binding, purified MHC/direct/fluorescence; filed as Kd, often an IC50 or EC50 that approximates it; ≥ and ≤ were set here for values at or beyond the usual limits of such assays
[7] = biological target: HLA-A*02:01; assay: IEDB peptide-MHC binding, purified MHC/competitive/fluorescence; ≥ and ≤ were set here for values at or beyond the usual limits of such assays; settings: source organism: Sudan ebolavirus
[8] = biological target: HLA-A*01:01; assay: IEDB peptide-MHC binding, purified MHC/competitive/radioactivity; filed as Kd, often an IC50 or EC50 that approximates it; ≥ and ≤ were set here for values at or beyond the usual limits of such assays; settings: source organism: Dengue virus 4 Dominica/814669/1981
[9] = biological target: HLA-B*46:01; assay: IEDB peptide-MHC binding, purified MHC/direct/fluorescence; filed as Kd, often an IC50 or EC50 that approximates it; ≥ and ≤ were set here for values at or beyond the usual limits of such assays; settings: source organism: Yellow fever virus
[10] = biological target: HLA-A*69:01; assay: as above; settings: source organism: Amur virus
[11] = biological target: HLA-A*02:01; assay: as above
[12] = biological target: HLA-A*26:01; assay: IEDB peptide-MHC binding, purified MHC/competitive/radioactivity; filed as Kd, often an IC50 or EC50 that approximates it; ≥ and ≤ were set here for values at or beyond the usual limits of such assays
[13] = biological target: HLA-B*51:01; assay: as above
[14] = biological target: HLA-B*53:01; assay: as above; settings: source organism: Dengue virus 4 Philippines/H241/1956
[15] = biological target: HLA-A*24:02; assay: as above
[16] = biological target: HLA-B*58:01; assay: IEDB peptide-MHC binding, purified MHC/direct/fluorescence; filed as Kd, often an IC50 or EC50 that approximates it; ≥ and ≤ were set here for values at or beyond the usual limits of such assays; settings: source organism: Salmonella enterica subsp. enterica serovar Typhimurium
[17] = biological target: HLA-B*15:01; assay: as above; settings: source organism: Salmonella enterica subsp. enterica serovar Typhimurium
[18] = source organism: Dengue virus 3 Martinique/1243/1999
[19] = source organism: Vaccinia virus WR
[20] = source organism: Dengue virus 1 Singapore/S275/1990
[21] = source organism: Dengue virus 2 Jamaica/1409/1983
[22] = source organism: Dengue virus 2 Peru/IQT2913/1996
[23] = source organism: Mammarenavirus guanaritoense
[24] = source organism: Dengue virus 1 Brazil/97-11/1997
[25] = source organism: Vaccinia virus Copenhagen
[26] = source organism: SARS coronavirus Tor2
[27] = source organism: Salmonella enterica subsp. enterica serovar Typhimurium

Sequence | pKd [2, 19] | pKd [3, 19] | pKd [4, 19] | also measured
QQMDPEHRQL |  |  |  | pKd [1, 18]: 6.93
QVKDNIISRT | 6.38 | ≤ 4.47 | 4.75 | 
RFKGEDGCWY |  |  |  | pKd [5, 20]: 8.09
RIKSVLDII | 7.75 | 5.68 | 6.95 | 
RLPSETFPNV | 7.85 | 9.23 | 6.76 | 
RPKSNIVLL |  |  |  | pKd ([6]; source organism: Homo sapiens): 6.70
RPPIFIRRL |  |  |  | pKd ([6]; source organism: Human herpesvirus 4 strain B95-8): 6.45
RSGVPPKVV |  |  |  | pIC50 [7]: ≤ 4.10
SAEDNYLAKL | ≤ 4.15 | ≤ 4.16 | ≤ 4.15 | 
SARALKAYFT | 5.11 | ≤ 4.59 | ≤ 4.67 | 
SASDMQKFTI | 5.91 | 5.37 | 4.97 | 
SIGKMFESTY |  |  |  | pKd ([5]; source organism: Dengue virus 4 Dominica/814669/1981): 7.43; pKd [8]: 4.77
SIQDNQVAY |  |  |  | pKd [9]: 4.71
SLFSLLPGV |  |  |  | pKd [10]: ≥ 9.00; pKd ([11]; source organism: Amur virus): ≥ 9.00
SVDVDIYDA | 4.92 | 6.02 | 5.92 | 
SVIEKMETL |  |  |  | pKd [12, 21]: 6.82
TIAVSVYGA | 8.00 | 7.01 | 7.60 | 
TLPELNLSL | 7.65 | 6.10 | 6.87 | 
TMKHKKATY |  |  |  | pKd [5, 21]: 5.92; pKd [1, 21]: 7.08
TMRHKKATY |  |  |  | pKd [5, 22]: ≤ 4.11; pKd [1, 22]: 6.35
TMSIYIAVA | 7.39 | 6.10 | 7.09 | 
TNAEFTFQL |  |  |  | pKd [2, 23]: 4.82; pKd [3, 23]: 5.44; pKd [4, 23]: 6.39
TPVHSWEDI |  |  |  | pKd ([13]; source organism: Dengue virus 4 Philippines/H241/1956): 4.80; pKd [14]: 5.65

Sequence | pKd [2, 19] | pKd [3, 19] | pKd [4, 19] | also measured
TQVKELGIAI | 6.15 | 8.41 | 5.66 | 
TSIGLLCVM |  |  |  | pKd [12, 20]: 5.61
TTLPSQNST |  |  |  | pIC50 [7]: ≤ 3.69
TVITPMMRH |  |  |  | pKd [12, 24]: 5.77
TWAKNIQTAI |  |  |  | pKd [15, 21]: 6.29
VGMGEAAAIF |  |  |  | pKd [15, 24]: 5.06
VIIHVIEHL |  |  |  | pKd [1, 19]: 5.92
VLIAGIILLI |  |  |  | pKd [2, 25]: 7.46; pKd [3, 25]: 5.99; pKd [4, 25]: 8.05
VLTSVDIETA | 6.38 | 5.85 | 7.20 | 
VMATEEPTT |  |  |  | pIC50 [7]: ≤ 3.84
VMYAFTTPLI | 8.32 | 7.94 | 9.14 | 
VPLAGPLIA |  |  |  | pKd [13, 24]: 4.83
VPLQWIASAI |  |  |  | pKd ([13]; source organism: Dengue virus 3 Sri Lanka/1266/2000): 7.66
VQYRILPMII | 6.22 | 6.40 | 5.00 | 
VVIVENDNVI | 4.99 | 4.97 | 4.83 | 
WISDNTHIYL | 8.94 | 8.75 | 9.84 | 
WPLNEAIMAV |  |  |  | pKd [13, 21]: 6.33
WYGMEIRPI |  |  |  | pKd [15, 18]: 5.52
YASALVLLI |  |  |  | pKd [2, 26]: 8.31; pKd [3, 26]: 8.06; pKd [4, 26]: 8.49
YFIKHVLAF |  |  |  | pKd [1, 19]: 8.60
YLAGAGLLF |  |  |  | pKd [12, 21]: 5.67; pKd [15, 21]: 7.55; pKd [1, 21]: 8.73
YLGPTIRVW |  |  |  | pKd [6, 27]: 4.88; pKd [16]: 6.90; pKd [11, 27]: 5.73; pKd [17]: 5.91
YLLFNHFSV | 8.80 | 9.14 | 8.91 | 
